Results on one molecule are retold here after publication PMC3823998, “Structural and Functional Characterization of the Redβ Recombinase from Bacteriophage λ” (PLoS ONE, 2013).

Common to all, as to assay: EMSA; glutaraldehyde-fixed; ssDNA EMSA: 10 nM DNA, 50 mM potassium phosphate pH 6.0, 5 mM EDTA, 5% glycerol, 0.1 mg/ml BSA, 37°C, 40 min, then 0.1% glutaraldehyde; second-strand EMSA: 5 nM each strand, 20 mM Tris-HCl pH 7.5, 5 mM MgCl2, 1 mM DTT, 0.1 mg/ml BSA, 37°C
What all share (settings): protein: recombinant; tags: His6 removed; N-terminal GSH left; label: 5' Cy3
Background: Mobility shift assays separate free from complexed probe on a gel.

For one series, the target named is T1, Redβ Y64A (Bacteriophage λ (Enterobacteria phage λ), UniProt P03698 1-261, Y64A).
T1 sequence: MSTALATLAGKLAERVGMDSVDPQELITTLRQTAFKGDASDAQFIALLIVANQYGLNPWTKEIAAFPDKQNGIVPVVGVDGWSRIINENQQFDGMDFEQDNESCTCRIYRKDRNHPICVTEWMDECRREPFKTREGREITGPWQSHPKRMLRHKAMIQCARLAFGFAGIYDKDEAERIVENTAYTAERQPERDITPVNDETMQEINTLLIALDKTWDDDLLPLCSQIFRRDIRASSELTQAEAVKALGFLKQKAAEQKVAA

In a further series the target is T2, Redβ K69A (Bacteriophage λ (Enterobacteria phage λ), UniProt P03698 1-261, K69A).
T2 sequence: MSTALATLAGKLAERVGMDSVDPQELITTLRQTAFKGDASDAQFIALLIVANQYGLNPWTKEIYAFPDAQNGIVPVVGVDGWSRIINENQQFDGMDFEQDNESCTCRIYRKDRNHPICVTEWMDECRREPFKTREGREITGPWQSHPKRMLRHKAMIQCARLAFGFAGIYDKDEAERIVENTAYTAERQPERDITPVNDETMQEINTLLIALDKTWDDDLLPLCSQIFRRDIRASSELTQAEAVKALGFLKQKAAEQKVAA

A further series has as its target T3, Redβ R149A (Bacteriophage λ (Enterobacteria phage λ), UniProt P03698 1-261, R149A).
T3 sequence: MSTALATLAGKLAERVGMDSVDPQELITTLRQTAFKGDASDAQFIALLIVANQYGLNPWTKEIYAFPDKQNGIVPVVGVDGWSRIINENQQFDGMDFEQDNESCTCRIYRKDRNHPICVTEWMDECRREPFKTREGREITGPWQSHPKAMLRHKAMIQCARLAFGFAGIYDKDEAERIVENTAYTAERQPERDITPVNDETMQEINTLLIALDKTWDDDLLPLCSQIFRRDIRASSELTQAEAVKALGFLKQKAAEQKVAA

In another series the target is T4, Redβ K132A (Bacteriophage λ (Enterobacteria phage λ), UniProt P03698 1-261, K132A).
T4 sequence: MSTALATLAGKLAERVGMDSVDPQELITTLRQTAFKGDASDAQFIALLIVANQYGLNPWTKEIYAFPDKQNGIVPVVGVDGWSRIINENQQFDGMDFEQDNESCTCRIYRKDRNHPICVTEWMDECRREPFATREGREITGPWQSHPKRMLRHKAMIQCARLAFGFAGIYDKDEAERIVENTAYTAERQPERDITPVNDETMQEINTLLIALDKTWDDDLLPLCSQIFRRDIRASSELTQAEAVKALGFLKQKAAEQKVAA

The next series concerns the target T5, Redβ R152A (Bacteriophage λ (Enterobacteria phage λ), UniProt P03698 1-261, R152A).
T5 sequence: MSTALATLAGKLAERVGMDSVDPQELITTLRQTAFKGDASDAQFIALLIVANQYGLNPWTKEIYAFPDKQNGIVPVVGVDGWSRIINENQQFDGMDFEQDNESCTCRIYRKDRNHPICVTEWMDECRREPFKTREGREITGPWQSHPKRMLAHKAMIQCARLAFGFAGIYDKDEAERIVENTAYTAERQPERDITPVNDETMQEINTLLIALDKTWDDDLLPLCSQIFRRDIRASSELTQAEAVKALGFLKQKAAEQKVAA

In the next series the target is T6, Redβ G78A (Bacteriophage λ (Enterobacteria phage λ), UniProt P03698 1-261, G78A).
T6 sequence: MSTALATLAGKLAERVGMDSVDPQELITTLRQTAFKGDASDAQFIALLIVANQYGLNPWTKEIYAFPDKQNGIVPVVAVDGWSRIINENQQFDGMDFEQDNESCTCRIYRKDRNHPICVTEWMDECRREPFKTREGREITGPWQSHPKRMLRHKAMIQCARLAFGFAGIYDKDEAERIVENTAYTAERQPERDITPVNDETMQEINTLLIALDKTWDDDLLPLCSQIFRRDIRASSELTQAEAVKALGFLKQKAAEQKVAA

With TGCGGATGGCTTAGAGCTTAATTGCTGAATCTGGTGCTGTAGCTCAACAT (ssDNA) [50-minus ssDNA], the binding signal was 98 % of WT binding at 3 µM protein with Redβ Y64A; 94 % of WT binding at 3 µM protein in the series with Redβ K69A; 44 % of WT binding at 3 µM protein with Redβ R149A; 82 % of WT binding at 3 µM protein in the series with Redβ K132A; 13 % of WT binding at 3 µM protein with Redβ R152A; 33 % of WT binding at 3 µM protein with Redβ G78A.
